Results published in paper PMC3044229.
Like-named read-outs stand apart in the source and are kept apart here.

T1: GST-ABP9 (Zea mays, UniProt D2KNW6 1-385)
T1 sequence: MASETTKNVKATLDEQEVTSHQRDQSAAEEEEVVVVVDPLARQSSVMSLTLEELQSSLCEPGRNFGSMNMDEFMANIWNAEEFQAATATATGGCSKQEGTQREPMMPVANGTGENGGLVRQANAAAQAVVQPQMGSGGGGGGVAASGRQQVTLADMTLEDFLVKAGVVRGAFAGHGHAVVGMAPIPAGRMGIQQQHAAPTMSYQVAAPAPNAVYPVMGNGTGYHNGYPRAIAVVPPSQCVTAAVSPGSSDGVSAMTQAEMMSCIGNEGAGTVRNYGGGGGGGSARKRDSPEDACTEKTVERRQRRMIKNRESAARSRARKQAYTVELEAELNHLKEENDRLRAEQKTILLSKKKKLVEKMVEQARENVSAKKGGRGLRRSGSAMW

B1: ABRE2 (dsDNA)
DNA 1: GAAGTCCACGTGGAGGTGG
DNA 2: CCACCTCCACGTGGACTTC
B2: mABRE2 (dsDNA)
DNA 1: GAAGTAACATGTTCGGTGG
DNA 2: CCACCGAACATGTTACTTC

Experiments:
[1] = molecular target: T1, GST-ABP9; assay: EMSA
[2] = molecular target: T1, GST-ABP9; assay: EMSA; remark: listed apart in the source

Row | Binder | binding result [1] | binding result [2]
1 | B1 | binds | 
2 | B2 |  | no binding
